Publication PMC9636186 (Nature Communications, 2022)

Biological target: ItcR itaconate-binding domain (IBD) (ItcR truncation of residues 80-292)
Assay: SEC-MALS

Substance: ItcR itaconate-binding domain (IBD) (ItcR truncation of residues 80-292) (domain or fragment)
- stoichiometry N: 2
